Results published in IntAct's records for PubMed 12571249.

B1: Syndecan-4 (Rattus norvegicus (Rat)), P34901 (parent)
chain: MAPVCLFAPLLLLLLGGFPVAPGESIRETEVIDPQDLLEGRYFSGALPDDEDAGGLEQDSDFELSGSGDLDDTEEPRTFPEVISPLVPLDNHIPENAQPGIRVPSEPKELEENEVIPKRVPSDVGDDDVSNKVSMSSTSQGSNIFERTEVLAALIVGGVVGILFAVFLILLLVYRMKKKDEGSYDLGKKPIYKKAPTNEFYA

Variants of: B1
Conditions: with kpca_human PRKCA

| Variant | effect of a mutation on the interaction |
| --- | --- |
| Y192F | disrupting interaction |
